Tests used:
[1] = tested on: colorectal adenocarcinoma cells; experiment: Survival of colorectal adenocarcinoma cells in response to gamma radiation; assay type: cell-based; settings: nanomolar concentrations, FIGS. 31 and 32
Excerpt: (§1) Stem cells and their immediate progeny are the only cells in the normal epithelium that are capable of continued proliferation. In this context, epithelial malignancies may reflect a form of disordered stem cell biology. FIGS. 27 and 28 show the effect of exogenous Reg proteins on the survival of intestinal stem cells following 13 Gy radiation. […] We therefore conducted experiments to see if exogenous Reg would promote the survival of colorectal adenocarcinoma cells in response to gamma radiation.

HT29 = experiment: Caspase activity in HT29 lysates following oxidative stress (hydrogen peroxide); assay type: cell-based; settings: nanomolar concentrations; HT29 lysates after hydrogen peroxide; FIG. 21
HT-29 cells = experiment: Bcl-xl and Bcl-2 expression after recombinant Reg Iα treatment; assay type: cell-based; settings: FIG. 29 and 30
Procedure: Additional colorectal cell lines were also examined to determine if this was a generalized effect on gastrointestinal cells. […] To determine if the increases in Bcl-2 mRNA also were associated with changes in Bcl-2 protein expression, Western blotting was performed on cell lysates taken at various times following Reg treatment.

intestinal stem cells = experiment: Survival of intestinal stem cells following 13 Gy radiation; assay type: in vivo, mouse; settings: pretreatment, FIGS. 27 and 28
Procedure: Gamma irradiation is a well-defined pro-apoptotic stimulus and is a commonly applied experimental approach to study intestinal epithelial cell death. […] At 6 hours marked apoptosis is seen in the crypt epithelium. By 24 hours, there is a loss of epithelial proliferation. Regenerating crypts, counted at 84 hours, are reflective of a single surviving stem cell.
as §1

[2] = tested on: colon cancer cell lines (e.g. HT29, SW480, T84); experiment: Upregulation of mRNA of other Reg family members in colon cancer cell lines; assay type: cell-based; settings: FIG. 33
Excerpt: One explanation for this finding could be that a single Reg protein can upregulate expression of other members of the Reg family.

Akt = experiment: Activation of the Akt pathway by phosphorylation in cancer cell lines; assay type: cell-based; settings: nanomolar concentrations; HCT116, HT29, N87 cells; FIGS. 19 and 20
Excerpt: One kinase responsible for protection against apoptosis in tumor cells may be Akt/protein kinase B. Akt, also referred to as Rac, regulates the balance between survival and apoptosis by several mechanisms. Akt may regulate the expression of anti-apoptotic proteins. Because of the effect of Reg on the regulation of Bcl-2 (and Bcl-xl, discussed later), we examined the effects of recombinant Reg IV and Reg Iα on the activation of the Akt pathway. […] Activated Akt has known pleiotropic effects (beyond effects on Bcl-2 family gene expression), reducing the amount of apoptosis occurring either at baseline or in response to a known proapoptotic stimulus.

Molecule	cell survival from gamma radiation [1]	caspase activity / protection against peroxide-induced apoptosis (HT29)	expression of Bcl-xl and Bcl-2 (HT-29 cells)	stem cell survival (intestinal stem cells)	mRNA coding for other members of the Reg gene family [2]	activation by phosphorylation of Akt (Akt)
Reg Iα: Recombinant human Reg Iα protein expressed by fermentation in Pichia pastoris (protein) QEAQTELPQARISCPEGTNAYRSYCYYFNEDRETWVDADLYCQNMNSGNLVSVLTQAEGAFVASLIKESGTDDFNVWIGLHDPKKNRRWHWSSGSLVSYKSWGIGAPSSVNPGYCVSLTSSTGFQKWKDVPCEDKFSFVCKFKN	improved cell survival	reduced caspase activity	increased expression of Bcl-xl and Bcl-2	significantly increased stem cell survival	upregulation of mRNA coding for other members of the Reg gene family	rapid activation by phosphorylation of Akt
Reg III: Recombinant human Reg III (pancreatitis-associated protein) expressed by fermentation in Pichia pastoris (protein) EEPQRELPSARIRCPKGSKAYGSHCYALFLSPKSWTDADLACQKRPSGNLVSVLSGAEGSFVSSLVKSIGNSYSYVWIGLHDPTQGTEPNGEGWEWSSSDVMNYFAWERNPSTISSPGHCASLSRSTAFLRWKDYNCNVRLPYVCKFTD	–	–	–	–	upregulation of mRNA coding for other members of the Reg gene family	–

— patent publication US7510708B2, “Disruption of the REG pathway” (Washington University, priority 2003, dated 2009)
